Results: article PMC6962426

Target: histidine-tagged FcγRIIIa-158V receptor
Experiment: Fcγ receptor binding assay
Conditions: read at the highest antibody concentration, x about 0.0014 (axis unit printed as µg/mL); parent: est. 260; read off a plot

Row | response [RU] | Substance
1 | 55 | IgG1-B (parent) N325D
2 | 17 | IgG1-B (parent) N325Q
